Laboratory results published in IntAct's records for PubMed 21390248.

Experiments:
1433g_mouse Ywhag [1] = target: 1433g_mouse Ywhag (UniProt P61982)
1433g_mouse Ywhag [2] = target: 1433g_mouse Ywhag (UniProt P61982); remark: listed apart in the source

Chain of UniProt P61982 (P61982 whole entry): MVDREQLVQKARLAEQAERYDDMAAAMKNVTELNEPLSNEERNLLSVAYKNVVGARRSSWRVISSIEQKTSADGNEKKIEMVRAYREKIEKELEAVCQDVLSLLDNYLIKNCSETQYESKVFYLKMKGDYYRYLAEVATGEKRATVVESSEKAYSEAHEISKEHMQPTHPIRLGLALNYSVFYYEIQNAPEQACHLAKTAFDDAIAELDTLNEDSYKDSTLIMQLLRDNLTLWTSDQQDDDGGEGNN

effect of a mutation on the interaction (1433g_mouse Ywhag [1])	effect of a mutation on the interaction (1433g_mouse Ywhag [2])	Substance
decreasing interaction		Leucine-rich repeat serine/threonine-protein kinase 2 (Mus musculus), Q5S006 G2019S
decreasing interaction		Leucine-rich repeat serine/threonine-protein kinase 2 (Mus musculus), Q5S006 S935A
decreasing interaction		Leucine-rich repeat serine/threonine-protein kinase 2 (Mus musculus), Q5S006 R1441G
	decreasing interaction	Leucine-rich repeat serine/threonine-protein kinase 2 (Mus musculus), Q5S006 Y1699C
